Data as given in patent US20200207837A1 (published 2020).
Changes are numbered by the printed parent chain.

T1: activated KLK8 (human KLK8, C-terminal His tag, pro-KLK8 activated with thermolysin) (UniProt O60259 33-260)
T1 chain: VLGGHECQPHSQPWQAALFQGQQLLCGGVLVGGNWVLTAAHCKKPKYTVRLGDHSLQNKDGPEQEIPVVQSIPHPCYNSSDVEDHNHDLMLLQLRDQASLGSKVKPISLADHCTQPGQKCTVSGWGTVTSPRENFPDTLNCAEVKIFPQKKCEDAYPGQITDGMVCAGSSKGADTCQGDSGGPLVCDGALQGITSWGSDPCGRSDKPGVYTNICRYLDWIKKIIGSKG

T2: activated KLK4 (human KLK4, C-terminal His tag, pro-KLK4 activated with thermolysin) (UniProt Q9Y5K2 31-254)
T2 chain: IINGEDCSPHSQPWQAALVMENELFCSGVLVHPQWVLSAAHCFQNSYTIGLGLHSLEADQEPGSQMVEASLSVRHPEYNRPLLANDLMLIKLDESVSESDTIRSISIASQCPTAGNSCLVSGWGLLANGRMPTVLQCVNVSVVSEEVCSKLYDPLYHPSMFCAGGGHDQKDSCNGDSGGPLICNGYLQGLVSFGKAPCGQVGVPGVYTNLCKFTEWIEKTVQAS

T3: KLK4 biotinylated with EZ-Link NHS-PEG4-Biotin (UniProt Q9Y5K2 31-254, biotinylated with EZ-Link NHS-PEG4-Biotin (sites not given))
T3 chain: T2 chain

B1: KLK4 inhibitory peptide K40004 (designed binder)
chain: GSGMKETAAAKFERQHMDSPDLGTDDDDKAMADIGSANSDPQFGLFSKYRTPNCEHAQLGVCQKLYQPVCGSDMSTYANECTLCMKIREGGHNIKIIRNGPCGASAAA
B2: KLK4/KLK8 inhibitory peptide K41046 (designed binder)
chain: B1 chain with E55G, H56R, A57Y, Q58Y, L59R, V61W, Q63F, L65S, Y66L, Q67E
B3: KLK1 inhibitory peptide K10062 (designed binder)
chain: B1 chain with E55D, H56I, A57Y, L59V, G60D, V61R, Q63W, K64W, L65A, Y66S
B4: KLK4/KLK8 inhibitory peptide K41047 (designed binder)
chain: GSGMKETAAAKFERQHMDSPDLGTDDDDKAMADIGSANSDPQFGLFSKYRTPNCMRFHKDGCARIYDPVCGSDMSTYANECTLCMKIREGGHNIKIIRNGPCGASAAA
B5: KLK4/KLK8 inhibitory peptide K41024 (designed binder)
chain: B4 chain with M55T, F57Y, H58V, K59V, D60N, A63S, I65V
B6: KLK4/KLK8 inhibitory peptide K41045 (designed binder)
chain: B4 chain with M55R, R56K, F57Q, H58Y, K59W, D60V, A63N, I65M, D67A
B7: KLK4/KLK8 inhibitory peptide K41043 (designed binder)
chain: B4 chain with M55R, F57Y, H58S, K59I, D60H, A63N, I65M, D67A
B8: KLK4/KLK8 inhibitory peptide K41041 (designed binder)
chain: B4 chain with M55Q, F57Y, H58S, K59Q, D60W, A63T, I65Q, Y66L
B9: KLK4/KLK8 inhibitory peptide K41025 (designed binder)
chain: B4 chain with M55S, F57Y, H58K, K59S, D60G, A63T, Y66F
B10: KLK4/KLK8 inhibitory peptide K41042 (designed binder)
chain: B4 chain with M55S, F57Y, H58R, K59R, D60E, A63N, I65M, D67N
B11: KLK4 inhibitory peptide K40003 (designed binder)
chain: B1 chain with H56L, A57Y, Q58V, L59E, G60D, K64R, L65I, Y66F, Q67K
B12: KLK4/KLK8 inhibitory peptide K41021 (designed binder)
chain: B4 chain with M55R, R56K, F57H, H58T, K59L
B13: KLK1 inhibitory peptide K10071 (designed binder)
chain: GSGMKETAAAKFERQHMDSPDLGTDDDDKAMADIGSANSDPQFGLFSKYRTPNCDQNKYRDCHYYYKPVCGSDMSTYANECTLCMKIREGGHNIKIIRNGPCGASAAA
B14: KLK4 inhibitory peptide K40001 (designed binder)
chain: B1 chain with E55R, H56K, A57Y, Q58E, L59Y, K64R, L65T, Q67L
B15: KLK4/KLK8 inhibitory peptide K41026 (designed binder)
chain: B4 chain with M55Q, F57Y, H58K, K59M, D60R, A63N, I65M
B16: KLK1 inhibitory peptide K10061 (designed binder)
chain: B13 chain with D55A, Q56R, K58N, Y59I, R60V, H63F
B17: KLK4 inhibitory peptide K40005 (designed binder)
chain: B13 chain with D55S, N57Q, K58A, Y59M, R60G, D61A, H63Q, Y64R, Y65I
B18: KLK1 inhibitory peptide K10066 (designed binder)
chain: GSGMKETAAAKFERQHMDSPDLGTDDDDKAMADIGSANSDPQFGLFSKYRTPNCSVALRDICWWTSEPVCGSDMSTYANECTLCMKIREGGHNIKIIRNGPCGASAAA

Tests used:
[1] = biological target: T1, activated KLK8 (human KLK8, C-terminal …); test: peptide substrate degradation inhibition
[2] = biological target: activated KLK1 (human KLK1, C-terminal His tag, pro-KLK1 activated with thermolysin) (UniProt P06870 25-262); test: peptide substrate degradation inhibition
[3] = biological target: T2, activated KLK4 (human KLK4, C-terminal …); test: peptide substrate degradation inhibition
[4] = biological target: T2, activated KLK4 (human KLK4, C-terminal …); test: peptide substrate degradation inhibition
[5] = biological target: T3, KLK4 biotinylated with EZ-Link …; test: SPR (Biacore T200)

Chain of activated KLK1 (human KLK1, C-terminal His tag, pro-KLK1 activated with thermolysin) (P06870 25-262): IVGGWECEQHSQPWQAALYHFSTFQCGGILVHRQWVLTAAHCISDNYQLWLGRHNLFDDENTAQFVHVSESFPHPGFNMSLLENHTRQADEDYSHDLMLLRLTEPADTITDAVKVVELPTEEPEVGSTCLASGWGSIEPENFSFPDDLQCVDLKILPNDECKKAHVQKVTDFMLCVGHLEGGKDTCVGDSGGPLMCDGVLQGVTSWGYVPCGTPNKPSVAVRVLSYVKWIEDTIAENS

Binder	IC50 [1]	IC50 [2]	IC50 [3]	Ki [4]	Kd [5]
B1	> 1000 nM	> 1000 nM	2.1 nM	0.38 nM	
B2	283 nM	> 1000 nM	2 nM	0.31 nM	
B3	> 1000 nM	12 nM	> 1000 nM		
B4	31.5 nM	> 1000 nM	7.4 nM	1.38 nM	
B5	8 nM	> 1000 nM	293 nM	74.6 nM	
B6	114 nM	> 1000 nM	2.3 nM	0.32 nM	
B7	5.3 nM	> 1000 nM	1.9 nM	0.21 nM	0.00891 nM
B8	11.4 nM	> 1000 nM	2.7 nM	0.4 nM	
B9	17 nM	> 1000 nM	86 nM	16.3 nM	
B10	17.5 nM	> 1000 nM	15.7 nM	2.8 nM	
B11	> 1000 nM	> 1000 nM	1.8 nM	0.2 nM	0.0232 nM
B12	7.5 nM	> 1000 nM	53 nM	10.7 nM	
B13	> 1000 nM	20 nM	> 1000 nM		
B14	> 1000 nM	> 1000 nM	1.8 nM	0.16 nM	0.00208 nM
B15	9.1 nM	> 1000 nM	293 nM	69.3 nM	
B16	> 1000 nM	13 nM	> 1000 nM		
B17	> 1000 nM	> 1000 nM	2.2 nM	0.21 nM	
B18	> 1000 nM	12 nM	> 1000 nM		
